The text below walks through data of article PMC10799895 (Nature Communications, 2024).

The assay concerns the target T1, His-sumo-ATG14 (UniProt Q6ZNE5 1-492).
T1 construct: not shown: 6×His, N-terminal, kept; SUMO, N-terminal, kept
Put plainly: pull-down; GST pull-down in vitro: GST-tagged protein on GST beads with the His-tagged protein overnight at 4 °C in 20 mM Tris pH 7.4, 300 mM NaCl, 0.1% NP-40, 1 mM PMSF; three washes; western blot. The conditions noted are these: both partners purified.

T1 sequence (Q6ZNE5 whole entry): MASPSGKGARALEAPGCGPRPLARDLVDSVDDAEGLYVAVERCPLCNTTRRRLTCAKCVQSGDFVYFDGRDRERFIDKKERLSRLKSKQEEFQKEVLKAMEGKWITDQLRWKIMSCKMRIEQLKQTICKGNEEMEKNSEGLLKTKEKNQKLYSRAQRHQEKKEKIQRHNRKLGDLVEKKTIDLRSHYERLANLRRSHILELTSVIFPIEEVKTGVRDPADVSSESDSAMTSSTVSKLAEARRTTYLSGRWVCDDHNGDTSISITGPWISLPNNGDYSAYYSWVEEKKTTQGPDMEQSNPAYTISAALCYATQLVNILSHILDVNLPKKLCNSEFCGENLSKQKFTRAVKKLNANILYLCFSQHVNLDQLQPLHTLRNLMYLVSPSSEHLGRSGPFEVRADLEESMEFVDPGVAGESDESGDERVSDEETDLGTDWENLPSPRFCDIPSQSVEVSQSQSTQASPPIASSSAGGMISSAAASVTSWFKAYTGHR

B1: GST-GABARAP (natural protein, UniProt O95166 1-117, looked up)
chain: MKFVYKEEHPFEKRRSEGEKIRKKYPDRVPVIVEKAPKARIGDLDKKKYLVPSDLTVGQFYFLIRKRIHLRAEDALFFFVNNVIPPTSATMGQLYQEHHEEDFFLYIAYSDESVYGL
notes: also called GST-ATG8s; not shown: GST, N-terminal, kept
For the molecule B1, the binding result is “binds”.
